Source: article PMC4739761, “AMPylation matches BiP activity to client protein load in the endoplasmic reticulum” (eLife, 2015)
Where no end group is shown, it is not given here.

B1: hamster BiP (27-654, with a His6-tag) AMPylated in vitro to completion on Thr518 (natural protein)
chain: not shown
modifications: AMPylated threonine at 518 (single AMP)
notes: BiP (GRP78), Chinese hamster (Cricetulus griseus), residues 27-654; numbers count on the precursor with its signal peptide (mature BiP is 19-654); also called BiP-AMP; AMPylated BiP; source: E. coli M15, purified (Ni-NTA); not shown: His6, N-terminal, kept
B2: hamster BiP (27-654, with a His6-tag), unmodified (natural protein)
chain: not shown
notes: BiP (GRP78), Chinese hamster (Cricetulus griseus), residues 27-654; numbers count on the precursor with its signal peptide (mature BiP is 19-654); also called wildtype (wt) BiP; GRP78; source: E. coli M15, purified (Ni-NTA); unmodified BiP from mock in vitro AMPylation reactions without enzyme served as control in the functional assays; not shown: His6, N-terminal, kept
B3: lucifer yellow-labeled BiP substrate peptide (HTFPAVLGSC) (peptide)
peptide: HTFPAVLGSC
modifications: also: lucifer yellow label, position not given here
notes: well-characterized BiP substrate peptide; also called LY-labeled substrate peptide; fluorescently-labeled substrate peptide

Key:
Settings in all cases: both partners purified
[1] = target: B3; experiment: fluorescence polarisation; competitive dissociation: pre-formed complex of BiP or BiP-AMP (40 µM) and LY-labeled peptide (1 µM) in 1 mM ADP, 400-fold excess (0.4 mM) of unlabeled peptide added at t = 0; single phase decay fit of the first 60 min
[2] = target: B2; experiment: as above
[3] = target: B1; experiment: as above
[4] = target: B2; experiment: fluorescence polarisation; steady state: 1 µM lucifer yellow-labeled peptide with BiP or BiP-AMP at 0-40 µM, 1 mM ADP, 24 hr at 30°C, FP buffer (37.5 mM HEPES-KOH pH 7.4, 125 mM KCl, 7 mM MgCl2, 0.5 mM CaCl2, 125 mM imidazole, 0.05% Triton X-100); read at room temperature
[5] = target: B1; experiment: as above

For B1, the “half-life (t1/2) of the complex” value [1] was 3.3 min.

B2 was tested, and the “half-life (t1/2) of the complex” value [1] was 19.3 min.

For B3, the koff [2] was 0.000617 s⁻¹, the koff [3] was 0.00353 s⁻¹ and the Kd [4] was 16.7 µM. The Kd [5] was 11.5 µM.

HTFPAVL (also called unlabeled peptide) [unlabeled substrate peptide (HTFPAVL)]: binds [2]; binds [3].
